# Data: paper PMC3561135
# What was measured:
# Experiment in all cases: SEC; size exclusion chromatography of the purified six-His-tagged recombinant proteins; data not shown; conditions not given
# [1] = target: Schistosoma mansoni phytochelatin synthase, N- and C-truncated form (PCS66-300) (Schistosoma mansoni)
# [2] = target: Schistosoma mansoni phytochelatin synthase, N-truncated protein (PCS66-591) (Schistosoma mansoni)
# [3] = target: Schistosoma mansoni phytochelatin synthase, full length protein (PCS1-591) (Schistosoma mansoni)
substance,measurement,setting,value
"Schistosoma mansoni phytochelatin synthase, N- and C-truncated form (PCS66-300) (domain or fragment)",stoichiometry N,[1],2
"Schistosoma mansoni phytochelatin synthase, N-truncated protein (PCS66-591) (domain or fragment)",stoichiometry N,[2],2
"Schistosoma mansoni phytochelatin synthase, full length protein (PCS1-591) (enzyme)",stoichiometry N,[3],2
